# From the nanobody polyreactivity screen of Harvey et al. (2022)
# Assay: yeast display, Sf9 membrane polyspecificity reagent, FACS + sequencing; frameworks hold sequencing errors
# Method in brief: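 Synthetic nanobody libraries on Saccharomyces cerevisiae BJ5465 were galactose-induced for 36–48 hours, stained 1 hour at 4 °C with 10% biotinylated, detergent-solubilized Sf9 membrane reagent and enriched on streptavidin microbeads. FACS then separated cells into low and high (top ~1%) gates by anti-HA (expression) and streptavidin (reagent binding) fluorescence. Genes were colony-PCR amplified, MiSeq 2 × 250 sequenced and CDR-length filtered. A clone's polyreactivity label is that of its gate of origin.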
row,Sequence,polyreactivity (PSR sort gate)
1,QVQLVESGGGRDQAGGSLRLSCAASGLTSYSNAMGWFRQAPGKERELVAAISRSGGSTYYADSVKGRFTISRDTAKNSVYLQMISLKAEDSAFYYCAASIWVYLLGGGYSDYDYWGQGTQETVSS,low polyreactivity
2,QDQLVESGGGLVQAGGSLRLSCAASGRTFYRYAMGWYRQAPGKERELVASITRGTSTNYADSVKGRFTISRDNAKNTVYLQMNSLKPEDTAVYYCNRRIFGGQRMYYWGQGTQVTVSS,high polyreactivity
3,QVQLVESGGGLVQAGGSLRLSCAASGSIYTSNAMGWYRQAPGKERELVAVITWRSGRTYYADSVKGRFTISRDNAMNTVYLQMNSLKPEDTAVYYCDALRYPKQKFDSWGQGTQVTVSS,high polyreactivity
4,QVQLVESGGGLVQAGGSLRLSCAASGSIFQVYAMGWYRQAPGNESEFVADIDWSGESTYYADSVKGRFTISRDNAKNTVYLQMNSLKPEDTAVYYCAAEDGYVTWDRDYEYWGQGTQVTVSS,low polyreactivity
5,QVQLVESGGGLVQAGGSLRLSCAASGSIFGPYAMGWYRQAPGKERELVATITSGGRTYYADSVKGRFTISRDNAKNTVYFQLNSLKPEDTAVYYCAAAGKGRYHVRSTMDYWGQGTQVTVSS,high polyreactivity
6,QVQLVESGGGLVQAGGSLRLTCAASGSTFYVYAMGWYRQAPGKERELVAAIDDSGDRTYYADSVKGRFTISRDNAKNTVYLQMNSLKPEDTAVYYCAAEYDSWEYDYWGQGTQVTVSS,low polyreactivity
7,QVQLVESGGGLVQAGCSLRLSCAASGGIFSAYVMGWYRQAPGKERELVAAITRRGGATYYADSVKGRFTISRDNAKNTVYLQMNSLKPEDTAVYYCAADDQYYTEYYYWGQGTQVTVSS,high polyreactivity
8,QVQLVESGGGLVQAGGSLRLSCAASGFIFAYYAMGWYRQEPGKERELVAAISSSGSTNYADSVKGRFTISRDNAKNTVYLQMNSLKPEDTAVYYCAADRVGGTPQAYVPSQFDYWGQGTQVTVSS,low polyreactivity
9,QVQLVESAGGLVQAGGSLRLSCAASGFTFYTYGMGWYRQAPGKERALVAAITSGVSTNYADSVKGRFTISRDNAKNTVYLQMNSLKPEDTAVYYCNKVGRPAYRWYDYWGQDTQVTVSS,low polyreactivity
10,QVQLVESVGGLVQAGGSLRLSCAASGFNFRVYPMGWYRPAPRKERELVAAISVSGGSTTYADSVNGRFTISRDNAKNTVYLQMNSLKPEDTAVYYCAADYDFFSLYLYDYWGQGTQVTVSS,low polyreactivity
11,QVQLVESGGGLVQAGGSLRLSCAASGSTFSTYVMGWYRQAPGKERELVATISYSSDSTYYADSVKVRFTISRDNAKNTVYLQMNSLKPEDSAVYYCNAARFTRRDYWGQGTQVTVSS,high polyreactivity
12,QVQLVESGRGLVQAGGSLRLSCAASGRIFYYAMGWYRQAPGKERELVAAITRSGGRTYYADSVKGRFTISRDNEKNTVYLQMNSLKPEDTAVYDCAADYGAQLWGYYPTFDYWGQGTQVTVSS,high polyreactivity
13,QVQLVESGGGLVQAGGSLRLSCAASGSTFYPNAMGWYIQAPGKERELVADITISGGRTYYADSVKGLFTISRDNAKNTVYLQMNSLKPEDTAVYYCNTRGIFFQSQTHDYWGQGTQVTVSS,low polyreactivity
14,QVQLVESGGGLVQAGGSLRLSCAASGRTFFIYAMGWYRQAPGKERELVAAISNGGSTNYADSVKGRFTISRDNAKNPVYLQLNSLKPEDTAVYYCAAQYIGNLRGVFHYEFDWGQGTQVSVSS,high polyreactivity
15,QVQLVESGGGLVQAGGSLRLSCAASGRTYPGNAMGWYRPAPGKERELVAAISWSGTRTYYADSVKGRFTISRDNAKNTVYLQMNSLKPEDTAVHFCNVVVKGAWDYYPYDYWGQGTQVTVSS,high polyreactivity
16,QVQLVESGGGLVHAGGSLRLSCAASGINFFPYAMGWYRQAPGKERELVASINISDSSTYYADSVKGRFTISRDNAKNTVYLQMNSLKPEDTAVYYCAADNRGDSWYWHGYWGQGTQVSVSS,low polyreactivity
17,QVQLVESGGGLVQAGGSLRLSCAASGGIFFINAMGWYRQAPGKERELVAAISISDGSTYYADSVKGRFTISRDNAKNTVYLQMNSLKPEDTAVYYCAAEGFDWDSPEMEYWGQGTQVTGSS,low polyreactivity
18,QVQLVESGAGLVQARGSLRISCAASGSIFGRYAMGWYRQAPRKERELVASIYSTGGRTYYADSVKGRFTISRDNAKNTVYLQMNSLKPEDTAVYYCAAKFYEYSTAGTQWIRYYYWGQGTQVTVSS,high polyreactivity
19,QVQLVESGGGLVQAGGRLRLSCAASGRIFFYYAMGWYRQAPGKERELVAAITSGGNTNYADSVKGRFTISRDNAKNTVYLQMNSLKPEDTAVYYCNKDLYADGQYNYDYWGQGTQVTVSS,low polyreactivity
20,QVQLVESGGCLVQAGGSLRLSCAASGRTSTGYSMGWYRQAPGKERELVAGIDKIGGRTYYADSVKGRFTISRDNAKNTVYLQMNSLKPEDTAVYYCAVKTSPRRYYWGQGTQVTVSS,high polyreactivity
21,QDQLVESGGGLVQAGGSLRLSCAASGSSFGYYAMGWYRQAPGKERELVASISWRGVSTYYADSVKGRFTISRDNAKNTVYIQMNSLKPEDTAVYYCATVYRWSFDYWGQGTQVTVSS,low polyreactivity
22,QVQLVESGGGLVQAGGSLRLSCAASGITFRKYVMGWYRPAPGKERELVAAITRGGSTNYADSVKGRFTISRDNAKNTVYLQMNSLKPEDTAVYYCATRQSWYPRWMDYWGQGTQVTVSS,high polyreactivity

row,Sequence,polyreactivity (PSR sort gate)
1,QVQLVESRGGLVQARGSLRLSSAASGFIFNANAMGCYRPAPGKESELVAAIDDGDSTYADSVKGRFTISRDNAKNTVYLQMNSLKPEDTAVYYCAVDGGEFSSYGYWGEGTQVTVSS,low polyreactivity
2,QVQLEESAGGLVQAGGSLRLSCAASGSTFYLNAMGSYRQAPGKERELVAAITVSGGSTYYADSVKGRFTISRDNAKNTVYLQMNSLKPEDNAVYYCARELLSPTYQRWYYYWGQGSQVTVSS,low polyreactivity
3,QVQLVESGGGLVQAGGSLRLSCAASGSIFYYYAMGWYRQAPGKERELVAGITVSGGRTYYADSVKGRFTISRDNAKNTVYLQMNSLKPEDTAVYYCAADGRAKYDYWGQGTQVTVSS,low polyreactivity
4,QVQLVESGGGLVQAGGSLRLSCAASGITIYGYAMGWYRQAPGKERELVAAISFRSGSTYYADSVKGRFTISRDNAKNTVYLQMNSLKPEDTAVYYCATDRYYRDDYWGQGTQVTVSS,low polyreactivity
5,QVQLVESGGGLVQAGGSLRLSCAASGFIFWKNAMGWYRQAPGKERELVAAISWSGGRTYYADSVKGRFTISRDNAKNTVYLQMNSLKPEDTGVYYCDASVGPFPVRGDYWGQGTQVTVSS,low polyreactivity
6,QVQLVESGGGLVQAGGSLRLSCAASGSTFGKNAMAWYRQAPGKERELVAAITSSGGRTYYADSVKGRFTISRDNAKNTVYLQMNSLKPEDTAVYYCNSVTRRRSLGPWPVEYDYWGQGTQVTVSS,high polyreactivity
7,QVQLVESGGGLVQAGGSLRLSCAASGGIFRSYTMGWYRQAPGKERELVAAISRSGGRTYYADSVKGRFTISRDNAKNTVYLQMNSLKPEDTAVYYCAAYVRSATLRVNYGYWGQGTQVTVSS,high polyreactivity
8,QVQLVESGGGLVQAGGSLRLSCAASGSTFYRNAMGWYRQAPGKEREFVAAISFRGGGTYADSVKGRFTISRDNAKNTVYLQMNSLIPEDTAVYYCAADHLSYRRRYEYWGQGTQVTVSS,low polyreactivity
9,QVQLVESGGGLVQAGGSLRLSCAASGITFVHYAMGWYRQAPGKERELVASITRRGGSTYYADSVKGRFTISRDNAKNTVYLQMHSLKPEDTAVYYCAARWSAWSGYIFDYWGQGTQVTVSS,high polyreactivity
10,QVQLVESGGGLVQAGGSLRLSCASSGRIFGVYAMGWYRQAPGKERELVAAITRGASTYYADSVKGRFTISRDNAKNTVYLQMNSLKPEDTAVYYCAVSQHRGIYRKYDYWGQGTQVTVSS,high polyreactivity
11,QVQLVESGGGLVQAGGSLRLSSAGSGSIFRVYALGWYRQAPGKERELVAVISIAGRTNYADSVKGRFTISRDNAKNTVYLQMNSLKPEDTAVYYCNAGGDGVATGYDYWGQGTQVTVSS,low polyreactivity
12,QVQLVESGGGLVQAGGSLRLSCAASGFTFSAYTMGWYRKAPGKERELVAAISWGGGSTFYADSVKGRFTISRDNAKNTVYLQMNSLKPEDTAVYYCNKQYVHPYDYWGQGTQVTLSS,high polyreactivity
13,QVQLVESWGCLVQAGGSLRLSCAASRSTFLSYAMGWDRQAPGKERELVAAISWSGGRTYYADSVKGRFTISRDHAKNTVYLQMNSLKPDDSAVYYCNAGQGYRAPLYNLYDYWGQGTQVTVSS,low polyreactivity
14,QDQLVESGGGLDQAGGSLRLSGAASGGILPRYAMGWYRQAPGKERELVAGITRGGSTYYADSVKGRFSISRDNAKNTVYLQMNSLKPEDTAVYYCAKYGYQTGIFYYWGQGTQVTVSS,high polyreactivity
15,QVQLVESGGGLVQAGGSLRLSCAASGNIFFGNAMGWYRQAPGKERELVAVISKRGGSTYYADSVKGRFTISRDNAKNTVYLQMNSLKPEDTAVYYCAKVPTSRGNQLQQDGTKYDYWGQGTQVTVSS,high polyreactivity
16,QVQLQVSGGGLVQAGGNLRLSCAASGTISDSVGMGWYRQAPGKEREFVAGITLGGITNYADSVRGRFTISRDNGKNLYLQMKSLKPEETAVYYCAVDDYRYINYEFWGQGTQVTVSS,high polyreactivity
17,QVQLVESGGGLVQAGGSLRLSCAASGRTFWYYAMGWYRQAPGKERELVAASTYRGGSTYYADSVKGRFTISRDNVKNTVYLQMNSLKPEDTAVYYCAAPYGEDYWRQGTQVTVSS,high polyreactivity
18,QVQLVESGGGLVQAGGSLRLSCAASGRTSRYAMGWYRQAPGKERELVAAISRNGGTTSYADSVKGRFTISRDNAKNTVYLQMNSLKPEDTAVYYCNAYSAFVPPTRGYYWGQGTQVTVSS,high polyreactivity
19,QVQLVESGGGLVQAGGSLRLSCAASGSIFTQYAMGWYRQAPGKERELVAAISWRGGRTYYADSVKGRFTISRDNAKNTVYLQMNSLKPEDTAVYYCNRVYGAHHYYYGIGTYDYWGQGTQVTVSS,high polyreactivity
20,QVQLVESGGGLVQAGGILRLSCAASGSTLTSNDMGWYRQAPGKERELFADITWSGGDTYYADSVKGRFTISRDNAKYTVYLQMNSLKPEDTAVYYCAAEDPNYRPFAYGIEYDYWGQGTQVTVSS,low polyreactivity
21,QVQLVESGGGLVQAGGSLRLSCAASGFIFVYNAMGWYRQAPGKEREFVASITWSGGRTYYADSVKGRFTISRDNAKNTVYLQMNSLKPEDTAVYYCATKYPNSQGRRYDYWGQGTQVTVSS,low polyreactivity
